We go through four molecules from US12097241B2, “Methods of treating kidney failure, and/or improving or stablizing renal function using modified relaxin polypeptides” (BRISTOL-MYERS SQUIBB COMPANY, priority 2017, dated 2024).

Data set [1] is described as follows: In vivo pharmacokinetic (PK) studies in rats. On the set-up: species or system Sprague-Dawley rats. The settings on record: rat, male Sprague-Dawley rats, single SC dose 1.0 mg/kg, serum ELISA; for AUC(0-inf): read-out: Rat PK AUC Total; for level at time molar at 24 h: read-out: Rat PK C24. In outline:
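Male Sprague-Dawley rats (n=3) given a single 1 mg/kg IV or SC dose of relaxin constructs in 20 mM histidine, 750 mM NaCl, pH 6.0; jugular serum sampled to 72 h. Serum relaxin by ELISA; Cmax, AUCinf, C24 and half-life from non-compartmental analysis of individual profiles.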
In general terms: An ELISA detects its analyte on a solid surface through an enzyme-linked reagent.

Data set [2] concerns the target T1, human RXFP1 receptor (Homo sapiens, UniProt Q9HBX9).
T1 construct: expressed in transfected cells
T1 sequence (Q9HBX9 1-757): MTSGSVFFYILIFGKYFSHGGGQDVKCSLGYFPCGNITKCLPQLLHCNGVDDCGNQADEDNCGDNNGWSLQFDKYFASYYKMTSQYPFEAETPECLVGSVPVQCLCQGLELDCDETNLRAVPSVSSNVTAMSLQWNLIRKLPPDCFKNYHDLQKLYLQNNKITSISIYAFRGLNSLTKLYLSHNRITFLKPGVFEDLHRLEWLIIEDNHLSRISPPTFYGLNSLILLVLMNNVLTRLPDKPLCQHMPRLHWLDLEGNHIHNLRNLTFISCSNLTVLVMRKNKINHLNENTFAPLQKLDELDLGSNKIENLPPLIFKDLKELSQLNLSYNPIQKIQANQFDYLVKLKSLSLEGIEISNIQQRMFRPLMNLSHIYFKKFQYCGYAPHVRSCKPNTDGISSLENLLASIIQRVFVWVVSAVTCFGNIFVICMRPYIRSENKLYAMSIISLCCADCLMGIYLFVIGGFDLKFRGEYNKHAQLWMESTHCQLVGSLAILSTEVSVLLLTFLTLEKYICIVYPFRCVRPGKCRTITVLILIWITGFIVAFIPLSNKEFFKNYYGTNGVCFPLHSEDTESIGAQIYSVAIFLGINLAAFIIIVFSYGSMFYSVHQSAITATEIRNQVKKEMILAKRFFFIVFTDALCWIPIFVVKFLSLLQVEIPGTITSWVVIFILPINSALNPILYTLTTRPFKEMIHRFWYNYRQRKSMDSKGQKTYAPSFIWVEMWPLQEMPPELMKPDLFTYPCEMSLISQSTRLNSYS
The experiment in a line: Intracellular cAMP accumulation assay. Format: cell-based. Background: Cyclic AMP is a second messenger, typically raised through Gs and lowered through Gi signalling.

Like-named read-outs stand apart in the source and are kept apart here.

With `CC[C@H](C)[C@@H]1NC(=O)[C@H](C)NC(=O)[C@H]([C@@H](C)CC)NC(=O)[C@H](CCC(N)=O)NC(=O)[C@H](C)NC(=O)[C@H](CCCNC(=N)N)NC(=O)[C@H](C(C)C)NC(=O)[C@H](CC(C)C)NC(=O)[C@H](CCC(=O)O)NC(=O)[C@H](CCCNC(=N)N)NC(=O)CNC(=O)[C@@H](NC(=O)[C@H](CC(C)C)NC(=O)[C@H](CCCCN)NC(=O)[C@@H](NC(=O)[C@@H](NC(=O)[C@H](CCC(=O)O)NC(=O)[C@H](CCC(=O)O)NC(=O)[C@H](CCSC)NC(=O)[C@H](Cc2c[nH]c3ccccc23)NC(=O)[C@H](CO)NC(=O)[C@H](C)N)C(C)C)[C@@H](C)CC)CSSC[C@@H]2NC(=O)[C@@H](NC(=O)[C@H](CCCCN)NC(=O)[C@H](CC(N)=O)NC(=O)[C@H](C)NC(=O)[C@H](CC(C)C)NC(=O)[C@H](C)NC(=O)[C@H](CO)NC(=O)[C@H](Cc3ccc(O)cc3)NC(=O)[C@H](CC(C)C)NC(=O)[C@@H](N)Cc3ccc(C(C)=NOCCNC(=O)[C@H](CCCCN)NC(=O)[C@H](CCCCN)NC(=O)CC[C@H](NC(=O)CCCCCCCCCCCCCC(=O)O)C(=O)O)cc3)CSSC[C@H](NC(=O)CNC(=O)[C@H](C(C)C)NC(=O)[C@H](Cc3c[nH]cn3)NC2=O)C(=O)N[C@@H]([C@@H](C)O)C(=O)N[C@@H](CCCCN)C(=O)N[C@@H](CCCNC(=N)N)C(=O)N[C@@H](CO)C(=O)N[C@@H](CC(C)C)C(=O)N[C@@H](C)C(=O)N[C@@H](CCCNC(=N)N)C(=O)N[C@@H](Cc2ccccc2)C(=O)N[C@H](C(=O)O)CSSC[C@@H](C(=O)NCC(=O)N[C@@H](CCSC)C(=O)N[C@@H](CO)C(=O)N[C@H](C(=O)N[C@@H](Cc2c[nH]c3ccccc23)C(=O)N[C@@H](CO)C(=O)O)[C@@H](C)O)NC1=O` [AQ1-KK-Glu^γ-C14-COOH], in data set [1], the AUC(0-inf) came out at 0.451 µM·h and the level at time molar at 24 h was 1.5 nM. The molecule further gave an EC50 in data set [2] of 0.34 nM.

`CCCCCCCCCCCCCC(=O)N[C@@H](CCC(=O)NCC(=O)NCC(=O)NCC(=O)N[C@@H](CCC(=O)O)C(=O)N[C@@H](CCC(=O)O)C(=O)N[C@@H](CCC(=O)O)C(=O)NCCON=C(C)c1ccc(C[C@H](N)C(=O)N[C@@H](CC(C)C)C(=O)N[C@@H](Cc2ccc(O)cc2)C(=O)N[C@@H](CO)C(=O)N[C@@H](C)C(=O)N[C@@H](CC(C)C)C(=O)N[C@@H](C)C(=O)N[C@@H](CC(N)=O)C(=O)N[C@@H](CCCCN)C(=O)N[C@H]2CSSC[C@@H]3NC(=O)CNC(=O)[C@H](C(C)C)NC(=O)[C@H](Cc4c[nH]cn4)NC(=O)[C@H](CSSC[C@H](NC(=O)[C@H](CC(C)C)NC(=O)[C@H](CCCCN)NC(=O)[C@@H](NC(=O)[C@@H](NC(=O)[C@H](CCC(=O)O)NC(=O)[C@H](CCC(=O)O)NC(=O)[C@H](CCSC)NC(=O)[C@H](Cc4c[nH]c5ccccc45)NC(=O)[C@H](CO)NC(=O)[C@H](C)N)C(C)C)[C@@H](C)CC)C(=O)NCC(=O)N[C@@H](CCCNC(=N)N)C(=O)N[C@@H](CCC(=O)O)C(=O)N[C@@H](CC(C)C)C(=O)N[C@@H](C(C)C)C(=O)N[C@@H](CCCNC(=N)N)C(=O)N[C@@H](C)C(=O)N[C@@H](CCC(N)=O)C(=O)N[C@@H]([C@@H](C)CC)C(=O)N[C@@H](C)C(=O)N[C@@H]([C@@H](C)CC)C(=O)N[C@H](C(=O)NCC(=O)N[C@@H](CCSC)C(=O)N[C@@H](CO)C(=O)N[C@H](C(=O)N[C@@H](Cc4c[nH]c5ccccc45)C(=O)N[C@@H](CO)C(=O)O)[C@@H](C)O)CSSC[C@@H](C(=O)O)NC(=O)[C@H](Cc4ccccc4)NC(=O)[C@H](CCCNC(=N)N)NC(=O)[C@H](C)NC(=O)[C@H](CC(C)C)NC(=O)[C@H](CO)NC(=O)[C@H](CCCNC(=N)N)NC(=O)[C@H](CCCCN)NC(=O)[C@H]([C@@H](C)O)NC3=O)NC2=O)cc1)C(=O)O` [AQ1-EEEGGG-Glu^γ-C13-CH3]: in data set [1], the AUC(0-inf) was 0.274 µM·h and the level at time molar at 24 h worked out at 0.4 nM. For the same molecule, the EC50 in data set [2] (CHO-K1 cells stably expressing human RXFP1, 10 min at 37° C., HTRF cAMP, average, read-out: hRXFP1/CHO-K1 cAMP EC50 (nM, avg)) came out at 0.38 nM.

Regarding `CC[C@H](C)[C@@H]1NC(=O)[C@H](C)NC(=O)[C@H]([C@@H](C)CC)NC(=O)[C@H](CCC(N)=O)NC(=O)[C@H](C)NC(=O)[C@H](CCCNC(=N)N)NC(=O)[C@H](C(C)C)NC(=O)[C@H](CC(C)C)NC(=O)[C@H](CCC(=O)O)NC(=O)[C@H](CCCNC(=N)N)NC(=O)CNC(=O)[C@@H](NC(=O)[C@H](CC(C)C)NC(=O)[C@H](CCCCN)NC(=O)[C@@H](NC(=O)[C@@H](NC(=O)[C@H](CCC(=O)O)NC(=O)[C@H](CCC(=O)O)NC(=O)[C@H](CCSC)NC(=O)[C@H](Cc2c[nH]c3ccccc23)NC(=O)[C@H](CO)NC(=O)[C@H](C)N)C(C)C)[C@@H](C)CC)CSSC[C@@H]2NC(=O)[C@@H](NC(=O)[C@H](CCCCN)NC(=O)[C@H](CC(N)=O)NC(=O)[C@H](C)NC(=O)[C@H](CC(C)C)NC(=O)[C@H](C)NC(=O)[C@H](CO)NC(=O)[C@H](Cc3ccc(O)cc3)NC(=O)[C@H](CC(C)C)NC(=O)[C@@H](N)Cc3ccc(C(C)=NOCCNC(=O)CNC(=O)CNC(=O)CNC(=O)CNC(=O)[C@@H]4CCCN4C(=O)CC[C@H](NC(=O)CCCCCCCCCCCCCC(=O)O)C(=O)O)cc3)CSSC[C@H](NC(=O)CNC(=O)[C@H](C(C)C)NC(=O)[C@H](Cc3c[nH]cn3)NC2=O)C(=O)N[C@@H]([C@@H](C)O)C(=O)N[C@@H](CCCCN)C(=O)N[C@@H](CCCNC(=N)N)C(=O)N[C@@H](CO)C(=O)N[C@@H](CC(C)C)C(=O)N[C@@H](C)C(=O)N[C@@H](CCCNC(=N)N)C(=O)N[C@@H](Cc2ccccc2)C(=O)N[C@H](C(=O)O)CSSC[C@@H](C(=O)NCC(=O)N[C@@H](CCSC)C(=O)N[C@@H](CO)C(=O)N[C@H](C(=O)N[C@@H](Cc2c[nH]c3ccccc23)C(=O)N[C@@H](CO)C(=O)O)[C@@H](C)O)NC1=O` [AQ1-GGGGP-Glu^γ-C14-COOH], in data set [1], the AUC(0-inf) was found to be 2.18 µM·h and the level at time molar at 24 h stood at 3.9 nM. This molecule also displayed an EC50 in data set [2] of 0.39 nM.

For the molecule `CC[C@H](C)[C@@H]1NC(=O)[C@H](C)NC(=O)[C@H]([C@@H](C)CC)NC(=O)[C@H](CCC(N)=O)NC(=O)[C@H](C)NC(=O)[C@H](CCCNC(=N)N)NC(=O)[C@H](C(C)C)NC(=O)[C@H](CC(C)C)NC(=O)[C@H](CCC(=O)O)NC(=O)[C@H](CCCNC(=N)N)NC(=O)CNC(=O)[C@@H](NC(=O)[C@H](CC(C)C)NC(=O)[C@H](CCCCN)NC(=O)[C@@H](NC(=O)[C@@H](NC(=O)[C@H](CCC(=O)O)NC(=O)[C@H](CCC(=O)O)NC(=O)[C@H](CCSC)NC(=O)[C@H](Cc2c[nH]c3ccccc23)NC(=O)[C@H](CO)NC(=O)[C@H](C)N)C(C)C)[C@@H](C)CC)CSSC[C@@H]2NC(=O)[C@@H](NC(=O)[C@H](CCCCN)NC(=O)[C@H](CC(N)=O)NC(=O)[C@H](C)NC(=O)[C@H](CC(C)C)NC(=O)[C@H](C)NC(=O)[C@H](CO)NC(=O)[C@H](Cc3ccc(O)cc3)NC(=O)[C@H](CC(C)C)NC(=O)[C@@H](N)Cc3ccc(/C(C)=N/OCCNC(=O)CNC(=O)[C@H](CO)NC(=O)[C@@H]4CCCN4C(=O)CNC(=O)[C@H](CO)NC(=O)[C@@H]4CCCN4C(=O)CC[C@H](NC(=O)CCCCCCCCCCCCCC(=O)O)C(=O)O)cc3)CSSC[C@H](NC(=O)CNC(=O)[C@H](C(C)C)NC(=O)[C@H](Cc3c[nH]cn3)NC2=O)C(=O)N[C@@H]([C@@H](C)O)C(=O)N[C@@H](CCCCN)C(=O)N[C@@H](CCCNC(=N)N)C(=O)N[C@@H](CO)C(=O)N[C@@H](CC(C)C)C(=O)N[C@@H](C)C(=O)N[C@@H](CCCNC(=N)N)C(=O)N[C@@H](Cc2ccccc2)C(=O)N[C@H](C(=O)O)CSSC[C@@H](C(=O)NCC(=O)N[C@@H](CCSC)C(=O)N[C@@H](CO)C(=O)N[C@H](C(=O)N[C@@H](Cc2c[nH]c3ccccc23)C(=O)N[C@@H](CO)C(=O)O)[C@@H](C)O)NC1=O` [AQ1-GSPGSP-Glu^γ-C14-COOH], in data set [1], the AUC(0-inf) amounted to 1.98 µM·h and the level at time molar at 24 h came to 5 nM. In addition, the EC50 in data set [2] was 0.29 nM.
